Measured values reported in the supplement of paper PMC9170038.

Tested on: MS2 coat protein
Assay: apparent KD of MS2 coat protein; designed switch direction (-1 OFF switch, 1 ON switch): -1; higher = weaker reporter binding
Outline: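 The apparent KD reported per design is the median over clusters of curve fits to normalised cluster fluorescence. The RNA switches were transcribed on Illumina chips by stalled E. coli RNA polymerase. SNAP-549-labelled MS2 coat protein was titrated from 0.7 or 1.5 nM, doubling up to 3 µM, in Tris-HCl pH 7.5 buffer containing KCl, MgCl2, BSA, DTT, tRNA and Tween-20, with no input, 200 uM small-molecule ligand, or an oligonucleotide input.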

[1] = Eterna round: R95, input ligand: FMN 200 uM
[2] = Eterna round: R95, input ligand: microRNA oligo, concentration not stated
[3] = Eterna round: R95, input ligand: none
[4] = input ligand: microRNA oligo, concentration not stated

Sequence	apparent KD of MS2 coat protein [1]	apparent KD of MS2 coat protein [2]	apparent KD of MS2 coat protein [3]	apparent KD of MS2 coat protein (input ligand: FMN 200 uM)	apparent KD of MS2 coat protein (input ligand: none)	apparent KD of MS2 coat protein [4]
UUUUAACAUGAGGAUCACCCAUGUGAGGAUAUCGAAUUUUAUAUUAAUAUUAAUAAAACGAGAAGGCACAUUUU [JMF 8] (puzzle: Exclusion 1)	60.8 nM	49.6 nM	49.6 nM	–	–	–
AUGUAACAUGAGGAUCACCCAUGUGAGGAUAUGCGAAUGAAUGAAUGAAUGAAUGUUAGCAGAAGGCACAAGUA [Default title] (Eterna round: R97, puzzle: Exclusion 1)	–	–	–	59.6 nM	44.3 nM	–
ACAAGCUUCGAUAUCCUUAACAUGAGGAUCACCCAUGUUCGUCUUAUGAUGGUCUGAUCCCUGAGGAUCGGACCGUU [JL-sv1-2.09 Brourd Mod] (puzzle: Sensor v3, turn-off variant 1)	40.9 nM	62.3 nM	40.4 nM	–	–	–
GCAGCAACUCUCACUAACUAAACAUGAGGAUCACCCAUGUCUCAGGAUAUGGUCUGGAUUACAGGCCAGAAGGGAGAAAGCUGC [Eli exng3 - 040] (Eterna round: R96, puzzle: Exclusion NG 3)	–	–	–	9.73 nM	13.1 nM	10.6 nM
CUGAAAGACGAAGGAUAUCCAGGCACCGGAGUAGGAGAAGGUCGUCCGGGUGUCCUAGAACUUGAGGAUCACCCAAGUAGAAGA [Mutated MS2 EX1.5] (Eterna round: R96, puzzle: Exclusion NG 1)	–	–	–	34.4 nM	24.7 nM	36.9 nM
GCUGGUCGAGGAUAUAUAUGACGUGCUUCGGCACGAAGAUCACAUGAGGAUCACCCAUGUAGAAGGCGACCAGC [E2/8-A1] (Eterna round: R97, puzzle: Exclusion 2)	–	–	–	1480 nM	156 nM	–
ACCAUUUUACGAUAUGUGCACAUGAGGAUCACCCAUGUUCCGAUAAACAUUUGAAGUACAGCAGGCUGCUCGAUCUG [Eternabot (L2) Solution 45] (Eterna round: R97, puzzle: Sensor, turn-off variant 1)	–	–	–	94.2 nM	87.4 nM	–
CUGGUCCGAGGAUAUAUUAAGUGAUACAUGAGGAUCACCCAUGUUAUUUGAUGGAUGUAAAUAGAAGGCGGACUAG [JL-ex5-3.17] (puzzle: Exclusion 5)	37.1 nM	38.9 nM	45.2 nM	–	–	–
UUUUAGUAAGGAUAUGGUUAGAUCUACUUCGGUAGAUCUAACCAGAAGGUACAUGAGGAUCACCCAUGUAGAUA [Mod of Brourd 19 - Jieux - Exclusion 4] (Eterna round: R97, puzzle: Exclusion 4)	–	–	–	25.2 nM	25.3 nM	–
GUAGCUUCGGCUACUACAAGCUUUUUGCUCGUCUUAUUAACAUGAGGAUCACCCAUGUUAAUGAGACCUCAUGUAUU [Sensor v3 - turn-off variant 2 - 6] (puzzle: Sensor v3, turn-off variant 2)	13.4 nM	17 nM	10.9 nM	–	–	–
CGGCGGGUCGCGCUGGUCCACAUGAGGAUCACCCAUGUUCCGGCACGCUGAAGGCACACGCUUUUUGCUCGUCUUAU [Sensor V1 S1] (Eterna round: R97, puzzle: Sensor, turn-off variant 1)	–	–	–	32.2 nM	35 nM	–
AAUUAUUUUUGAGGAUAUGGUAGUGAAACACUACCAGAAGGCGGAAUAAACAUGAGGAUCACCCAUGUGAGCCUGAUGCUUAUG [Ex NG1 #46] (Eterna round: R96, puzzle: Exclusion NG 1)	–	–	–	–	–	17.9 nM
ACGUUGUCAGGAUAUCGUUAAUUUAGUUGUUUGUAUUAGUUCGAGAAGGGACAUGAGGAUCACCCAUGUUUGAA [Ex4 #34] (Eterna round: R97, puzzle: Exclusion 4)	–	–	–	36.2 nM	31.5 nM	–
GAAAAGCUAGGAUAUACAUGAGGAUCACCCAUGUAAGGUCGCUUCUUAUAUAGGGCAUGUAGAAGGAGCAAAGA [Eneriner] (puzzle: Exclusion 3)	70.6 nM	35.9 nM	32.1 nM	–	–	–
CGGUUGUGAGGAUAUACAUGAGGAUCACCCAUGUCCAUCCUUUCGGUAACGAUAGAACGUAGAAGGCGCACCGU [Eternabot (L2) Solution 55] (Eterna round: R97, puzzle: Exclusion 3)	–	–	–	24.4 nM	16 nM	–
AUUUUAAUAUAGGAUAUCGAAUUUAUUAUUUAACGAGAAGGAUAAACAUGAGGAUCACCCAUGUGGUAUCAUGG [JMFs Solution 2] (puzzle: Exclusion 6)	–	113 nM	–	–	–	–
UAUAUAUAGUAAGGAUAUGUAUAUAAUUUAUAAACAGAAGGUACUGACAUGAGGAUCACCCAUGUUUUAGUGUGGGCAUGUAGA [JMF's solution 55] (Eterna round: R96, puzzle: Exclusion NG 1)	–	–	–	–	–	64.4 nM

Sequence	apparent KD of MS2 coat protein [1]	apparent KD of MS2 coat protein [2]	apparent KD of MS2 coat protein [3]	apparent KD of MS2 coat protein (input ligand: FMN 200 uM)	apparent KD of MS2 coat protein (input ligand: none)	apparent KD of MS2 coat protein [4]
UUCGUGCAGCUUUGCUGUACGCGUACAUGAGGAUCACCCAUGUAGGAUAUGGUAGGCAAAGCUUACUAGAAGGAUAUGGUGAGC [Mat - Exclusion NG 3 - Mod of JL - D79] (Eterna round: R96, puzzle: Exclusion NG 3)	–	–	–	30.3 nM	21.4 nM	15.5 nM
UACAUGAGGAUCACCCAUGUUUUGUCGUGUAUGGUAUUUAUCUAGGAUAUCAAGUUAGUUAUUUAUGAGAAGGAGAAUAUUAAU [JMF's solution 29] (Eterna round: R96, puzzle: Exclusion NG 3)	–	–	–	42.5 nM	39.4 nM	30.7 nM
ACGUAUCAUGUCAGGAUAUAGCUAGCUACGGCUAGCUAGAAGGGACAUGAGGAUCACCCAUGUCAAAGAUACGU (puzzle: Brourd's mod of Exclusion 4)	–	13.2 nM	–	–	–	–
ACUCUUCCUGUUAGGAUAUGCAUCGGGCUUCCGCAGCAGAAGGAACAUGAGGAUCACCCAUGUCAAAUAAAAUC (Eterna round: R97, puzzle: Brourd's mod of Exclusion 4)	–	–	–	33.1 nM	17.4 nM	–
UACAUGAGGAUCACCCAUGUUUUGUCGUGUAUGGUAUUUAUCUAGGAUAUCAAUGUAUAUAUUUAUGAGAAGGAGAAUAUUAAU [JMF's solution 42] (Eterna round: R96, puzzle: Exclusion NG 3)	–	–	–	37.4 nM	34 nM	25.1 nM
GAUCAUGCAGGAUAUACAUGGACCAUGAAAACAUGGUUUUCACAUGAGGAUCACCCAUGUAGAAGGGCAUGAUC [Omei Ex2 A8] (Eterna round: R97, puzzle: Exclusion 2)	–	–	–	275 nM	1400 nM	–
CUGUGCACGCUGCGGUCCUACAUGAGGAUCACCCAUGUGGUCUGGUGGCGUGGGUCGCCGGACUUGGCUCGUCUUGA [salish99_S_TOV1_R5_023] (Eterna round: R97, puzzle: Sensor, turn-off variant 1)	–	–	–	19.1 nM	19.2 nM	–
GCAUGGAGACAGGAUAUCCGCGCGAACAAAAUAGGAGAAGGGUCUACAUGAGGAUCACCCAUGUGACGGUAUCC [Aedenqu] (puzzle: Exclusion 6)	62.2 nM	21.7 nM	27.2 nM	–	–	–
CUCUUGUGAGGAUAUCAGGUGUGCUAGCGUACUGGUACAUCUGAGAAGGCACAUGAGGAUCACCCAUGUUUCAA [Mat - Exclusion 4 - Mod of JL - D41] (puzzle: Exclusion 4)	–	52.5 nM	–	–	–	–
UACAUGAGGAUCACCCAUGUUUUGUCGUGUAUGGUAUUUAUCUAGGAUAUCAUAUUAUUUAUUUAUGAGAAGGAGAAUAUUAAU [JMF's solution 95] (Eterna round: R96, puzzle: Exclusion NG 3)	–	–	–	45.8 nM	26.9 nM	27.1 nM
UUUGUUUUGCAAGGAUAUGUUUAAUUUUAUUUUCCUUACACAUGAGGAUCACCCAUGUUAUUCUUACAGAAGGUGCGUAAUUUG [Excl-NG2-LRO05] (Eterna round: R96, puzzle: Exclusion NG 2)	–	–	–	–	–	171 nM
GUCGAUGUCAAAGGAUAUCAGCACGUUUAGUGCUGAGAAGGUUGAACAUGAGGAUCACCCAUGUAGAUCAUUAACGACUUAAUU [ENG1/10-A1] (Eterna round: R96, puzzle: Exclusion NG 1)	–	–	–	44.5 nM	20.7 nM	15.7 nM
AAUAAUAAGGAGGAUAUCGUAUCGGAAACGAUACGAGAAGGCCUAACAUGAGGAUCACCCAUGUUCCUCAAUAA [Fiskers Ex 6 - 2] (puzzle: Exclusion 6)	1320 nM	297 nM	311 nM	–	–	–
GAUUAUGCGAGCUUUAGGGACAUGAGGAUCACCCAUGUUCGUCUUAUUGGUCUAGGUGCACUGACAUACCUAAAUCU [JMF 91] (puzzle: Sensor v3, turn-off variant 1)	20.3 nM	34.9 nM	20.5 nM	–	–	–
AAUGUCUGAGGAUAUCGUUUUUUGUACAUGAGGAUCACCCAUGUCCAAUUUUGUAUAUUACGAGAAGGCAGUGGAA [JR_E5_Sub089] (Eterna round: R96, puzzle: Exclusion 5)	–	–	–	23.9 nM	15 nM	10.7 nM
AAGCUCACACGCUCGUCUUACAUGAGGAUCACCCAUGUCGCCGAGCUUCACAGGCUGAAGCUCAUAUAGGGUCAUGA [Eternabot (L2) Solution 26] (Eterna round: R97, puzzle: Sensor, turn-off variant 1)	–	–	–	85.1 nM	91.7 nM	–
AAUAACAAGUUGAUCCUUCACAUGAGGAUCACCCAUGUGCUCGUCUUGUAAAGUACUAUCACGAAAGUGAUAGUACA (Eterna round: R97, puzzle: Sensor, turn-off variant 1)	–	–	–	256 nM	249 nM	–
